Article PMC5395669

What was measured:
[1] = biological target: MBP-RctB F316P (Vibrio cholerae); experiment: AUC
[2] = biological target: DnaK (added to the in vitro Co-IP reactions) (UniProt P0A6Y8); experiment: Co-IP (amylose magnetic beads, Western blot with α-DnaK); conditions: 1 µM RctB, 1 µM DnaJ, 2 µM DnaK, 100 µM ATP, buffer A pH 7.4, 4°C
[3] = biological target: MBP-RctB F311P (Vibrio cholerae); experiment: AUC
[4] = biological target: RctB145–470 tryptic fragment (Vibrio cholerae); experiment: AUC; sedimentation velocity, 50,000 rpm, 20°C; 20 mM Tris pH 8.0, 300 mM NaCl, 1 mM TCEP, 1 mM EDTA, 5 mM MgCl2; multiple concentrations (Fig. S4A)
[5] = biological target: MBP-RctB K312P (Vibrio cholerae); experiment: AUC
[6] = biological target: MBP-RctB S313P (Vibrio cholerae); experiment: AUC
[7] = biological target: MBP-tagged RctB (wild type) (Vibrio cholerae (N16961 DNA as template)); experiment: AUC

Substance | ratio to parent [2] | further results
MBP-RctB F316P (natural protein) |  | stoichiometry N [1]: 2
MBP-tagged RctB (wild type) H157A; E158A; H159A; G160A; L161A; N162A; T163A | 0.3 | 
MBP-RctB F311P (natural protein) |  | stoichiometry N [3]: 2
MBP-tagged RctB (wild type) Q136A; N137A; E138A; K139A; Q140A; K141A; R142A | 0.8 | 
MBP-tagged RctB (wild type) P164A; P165A; M167A; K168A; D169A; E170A | 0.6 | 
RctB145–470 tryptic fragment (domain or fragment) |  | stoichiometry N [4]: 2
MBP-RctB K312P (natural protein) |  | stoichiometry N [5]: 2
MBP-tagged RctB (wild type) L129A; V130A; T131A; E132A; S133A; V134A; K135A | 0.9 | 
MBP-RctB S313P (natural protein) |  | stoichiometry N [6]: 2
MBP-tagged RctB (wild type) (natural protein) |  | stoichiometry N [7]: 2
MBP-tagged RctB (wild type) S143A; K144A; L146A; Q148A; T149A | 0.8 | 
MBP-tagged RctB (wild type) Q150A; V151A; N152A; Q153A; R154A; L155A; L156A | 0.4 | 
